According to the supplement of paper PMC10126150:
± gives the standard deviation of the averaged measurements.

System: ATP
Experiment: switch fluorescence ratio, 500 uM ATP over buffer (Cy3 cluster intensity, sum of 5 cycles each) (fold (ratio)); higher = stronger signal-on switching upon ATP binding; sequences stand for … in TCGTCGGCAGCGTCAGATGTGTATAAGAGACAGTTTTTTTTTTTTTTTTTTTTTTTTT…TC
Conditions: aptamer strand: ATP DNA aptamer (quencher-CACCTGGGGGAGTATTGCGGAGGAAGG + anchor), 100 nM annealed; ATP concentration: 500 uM
Procedure, shortened: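 Between each of five buffer/ATP cycles, the flow-cell was stripped with NaOH and re-annealed. Each cycle imaged Cy3-labelled switching-strand clusters, annealed to 100 nM quencher-labelled ATP aptamer on a modified Illumina MiSeq flow-cell, first in selection buffer and then after 15 min with 500 uM ATP at 22 °C. The fluorescence ratio is summed target-cycle over summed buffer-cycle Cy3 intensity per cluster, averaged per switch-domain sequence, with clusters outside 100-1000 RFU excluded.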
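Note: ATP exposure 15 min at 22 °C before imaging.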

Sequence	switch fluorescence ratio
TGTTTGAGGC	0.997 ± 0.044
TATCCACATT	1.02 ± 0.019
TTTCGGCTTT	1.24 ± 0.3
AGCCATTTTG	1.02 ± 0.022
CTTAGAATTG	1.02 ± 0.012
CGGGGGGATT	0.997 ± 0.012
AGGAAGGTGT	1.13 ± 0.2
TGTTATTTGA	0.996 ± 0.0056
TGATGGGCGC	1.026 ± 0.0036
TATCGAATTA	0.987 ± 0.017
TGCGGATGGT	0.98 ± 0.016
TATCCTGGCT	0.9961 ± 0.0089
ATTGATTTTC	0.999 ± 0.024
GGGCTTTATG	0.986 ± 0.023
TGGGATGTG	0.9906 ± 0.0049
ATATTTGGGG	1.02 ± 0.046
GATAAGTCGT	0.991 ± 0.032
AGGGGGCGTT	1.02 ± 0.042
TGTGGGTTTT	1.02 ± 0.056
TATAAGTGTT	1.002 ± 0.0067
CGGGGGCAGA	1 ± 0.023
TCCAGGGGGC	1.18 ± 0.16
ACTTGGGCAT	0.993 ± 0.028

Sequence	switch fluorescence ratio
GTGGGATGAG	1.01 ± 0.022
TTGTTATAGC	0.987 ± 0.042
CTCTGGGTTG	1.07 ± 0.13
TTTTGAAAGA	1.01 ± 0.062
CTAATTTTTG	1 ± 0.024
AATAACTAGA	0.9804 ± 0.0037
CTGTTAATAG	1.12 ± 0.027
AGGGCTTGTG	0.987 ± 0.012
CTGTTGGGTT	0.997 ± 0.016
TTACATTGAG	0.976 ± 0.015
TATATTGTA	0.986 ± 0.03
TTGGGGACTC	1 ± 0.026
AGGCCCGGGA	0.997 ± 0.013
TTTATTGACG	0.886 ± 0.012
AGATATAGGG	0.937 ± 0.012
CTCGGGTGGG	0.985 ± 0.037
ATTTATATCC	1.02 ± 0.013
GTTTCATGGG	0.9685 ± 0.0041
TACTAGAAGA	1.03 ± 0.039
TAAAACTAAA	0.9977 ± 0.0012
GTTATTGTTT	0.983 ± 0.041
TTTCGTTGTA	0.973 ± 0.001
AGGGGTTAAC	1.04 ± 0.042

Sequence	switch fluorescence ratio
CCATGATTTG	0.9922 ± 0.0042
TAGTGTATTC	0.989 ± 0.026
ACGCGCTTTA	0.99871 ± 0.00033
CTCAGCCCGT	1.03 ± 0.095
TTTTTAACGC	1.3 ± 0.29
TCGGAATATT	1.09 ± 0.062
CTGCTGAGGG	0.99 ± 0.013
TAGGAGGCGC	0.937 ± 0.064
ATGGGGGTAT	0.987 ± 0.019
AAAAGGGTA	0.957 ± 0.048
GATTTTTACT	1.02 ± 0.024
CACAGGGCGG	1.04 ± 0.017
GGGTTGGGGT	0.997 ± 0.041
TGTTTATCAT	0.978 ± 0.017
ATGCAGAAAT	1.41 ± 0.83
ACATAATATT	1.06 ± 0.036
TCATATATCT	0.9937 ± 0.0058
TTTATCCTTT	0.98 ± 0.025
GGAAGGGGCT	1.08 ± 0.12
GAAGAATGTG	1.01 ± 0.0082
TACTCACTGT	1.219 ± 0.0069
ACGGCGAGTC	1.01 ± 0.024
ATGCTTATAC	2.31 ± 0.36

Sequence	switch fluorescence ratio
GAGTGGGATG	0.9633 ± 0.0035
GGCCGGCAAC	0.9996 ± 0.0039
CCAGGCTATT	1.04 ± 0.026
TACAGGGGGC	1.12 ± 0.12
ATTCACCGCG	1.155 ± 0.0057
GGGGAGAACT	0.992 ± 0.016
CGGTTGGTGG	1.01 ± 0.014
TGGGAGGGTT	1.12 ± 0.25
TATTTCGATA	1.029 ± 0.0047
ACCGTGTATG	1.01 ± 0.027
GAGTTATATT	0.985 ± 0.025
GGGAATCGTA	1.04 ± 0.015
ATCATATGGA	0.985 ± 0.037
TAATTAGTTA	0.992 ± 0.025
GTTCTTTGG	0.9949 ± 0.0077
TCGTTAGATG	0.989 ± 0.023
TTCTAACCCC	1.12 ± 0.012
GGGCGCCATC	1.01 ± 0.016
TGGTGGGTGT	0.987 ± 0.024
AAAGAGGAGG	0.984 ± 0.036
TATTTTACAG	1.02 ± 0.02
AGTTATACGG	0.995 ± 0.032
GTATGGGCGT	1.03 ± 0.018

Sequence	switch fluorescence ratio
TAATCAGGAA	1.015 ± 0.0046
TTAGTCCTTT	1.03 ± 0.058
ACTTGGCTGT	0.99842 ± 0.00092
ATCACCGCGC	1.59 ± 0.093
CTAAGGTGTT	1.325 ± 0.011
ATAGGAATTT	0.993 ± 0.021
GGGGAAGGGG	1.03 ± 0.058
CCATAGGGGA	1.0339 ± 0.00023
GGTCGAGCTA	0.996 ± 0.042
GGTTTCGGGT	0.984 ± 0.0011
GGGTGTGAGG	0.983 ± 0.025
TACCAATTAA	1.01 ± 0.026
CTCTGGGGCG	1.01 ± 0.023
GTAATTTGGG	0.982 ± 0.019
CCACGAGATA	1.115 ± 0.0033
GTGTCGTGGC	1.012 ± 0.0029
GGTATTGGAG	0.984 ± 0.015
GCTAACGGCA	0.994 ± 0.03
TTCCAGTTTT	1 ± 0.04
TACTTGGACT	1.06 ± 0.018
GTAATACCAA	1.03 ± 0.058
AAACTTAGC	1.03 ± 0.065
AGGAAGTTGG	0.97916 ± 0.00082

Sequence	switch fluorescence ratio
CCGTTGTGAA	1.043 ± 0.0012
TCTCCATTGT	1.04 ± 0.046
TGGGTTCGAG	1.005 ± 0.0097
TACGGTGAGG	1.02 ± 0.011
ACGCGGGTAA	1.023 ± 0.0095
CTGTGGAAAG	0.991 ± 0.018
TAGTGTTTGG	1.02 ± 0.073
GATTTATCGC	1 ± 0.046
TGAGGTTTTC	1.02 ± 0.048
GGACAGGCAT	0.9852 ± 0.0091
ACAAAATGTT	1.02 ± 0.019
GTTTGCTTTT	1 ± 0.046
ATGTATAAAG	0.987 ± 0.03
TTAAACCTGG	1.08 ± 0.032
CCGTTGCGTG	1 ± 0.036
TAGATTTTAT	1.01 ± 0.042
CGTAATTGTA	1.01 ± 0.018
GGTGCGCATA	1.03 ± 0.019
TGAAGTTTTC	0.968 ± 0.022
CATAGGGTGA	1.01 ± 0.026
AATCTTTGGA	1 ± 0.013
AGCGATGCTT	1.133 ± 0.011
CGAGGGTACG	1 ± 0.032

Sequence	switch fluorescence ratio
TATTTAGATG	1.01 ± 0.018
TTTAAAAGGA	1.01 ± 0.056
AATATTACTA	1.007 ± 0.0041
ATAAGTAAAT	1 ± 0.018
AGAGTTAAAA	1.04 ± 0.0077
GAAATCACTC	1.15 ± 0.13
GCATGAGCGG	1.01 ± 0.013
CTGAGTGTGG	0.989 ± 0.028
GGGCATGGTG	1.05 ± 0.025
ATTTTTAGCA	0.99765 ± 0.00045
ATGGGGGAGT	0.9768 ± 0.0031
AGTGCGATGT	0.988 ± 0.016
CTTCTTGGAG	0.967 ± 0.026
AGCGCTTGTG	1.02 ± 0.038
TCTTGGGTTG	0.986 ± 0.029
AGAGCAGTGT	1.01 ± 0.014
TCGGGTCGCG	0.9948 ± 0.00097
TTTTAGCTCT	0.963 ± 0.015
ATCGGTTCGG	0.9934 ± 0.0053
